For 14 molecules, % bound results are on record in patent US20080044360A1.

B1: SEQ ID NO 133 (peptide)
peptide: YHACAQAGCWIW
modifications: disulfide 4-9 (inferred)
B2: Compound ID 883 (peptide)
peptide: {Gd^T″}-GQWHCTTD[Phe(4-CN)]PHHYCLYG
modifications: disulfide 5-14 (inferred)
B3: Compound ID 893 (peptide)
peptide: {Gd^T″}-GQWHCTTD[Phe(3,4-(OMe)2)]PHHYCLYG
modifications: disulfide 5-14 (inferred)
B4: SEQ ID NO 137 (peptide)
peptide: YHACYQAGCWAW
modifications: disulfide 4-9 (inferred)
B5: SEQ ID NO 165 (peptide)
peptide: Q[dW]TCSGDEYTWHCNYE
modifications: disulfide 4-13 (inferred); not fully specified (N-terminus, C-terminus); printed as QwTCSGDEYTWHCNYE
B6: Compound ID 901 (peptide)
peptide: {Gd^T″}-GQWHCTTRFPHH[dF]CLYG
modifications: disulfide 5-14 (inferred); not fully specified (C-terminus)
B7: SEQ ID NO 163 (peptide)
peptide: [dY][dH][dA][dC][dY][dQ][dA]G[dC][dW][dI][dW]
modifications: disulfide 4-9 (inferred); not fully specified (C-terminus)
B8: SEQ ID NO 166 (peptide)
peptide: QW[dT]CSGDEYTWHCNYE
modifications: disulfide 4-13 (inferred); not fully specified (N-terminus, C-terminus); printed as QWtCSGDEYTWHCNYE
B9: SEQ ID NO 175 (peptide)
peptide: QWTCSGDEYTWH[dC]NYE
modifications: disulfide 4-13 (inferred); not fully specified (N-terminus); printed as QWTCSGDEYTWHcNYE
B10: Compound ID 878 (peptide)
peptide: {Gd^T″}-GQWHCTTRFPHAYCLYG
modifications: disulfide 5-14 (inferred)
B11: SEQ ID NO 168 (peptide)
peptide: QWTC[dS]GDEYTWHCNYE
modifications: disulfide 4-13 (inferred); not fully specified (N-terminus); printed as QWTCsGDEYTWHCNYE
B12: SEQ ID NO 173 (peptide)
peptide: QWTCSGDEYT[dW]HCNYE
modifications: disulfide 4-13 (inferred); not fully specified (N-terminus); printed as QWTCSGDEYTwHCNYE
B13: SEQ ID NO 176 (peptide)
peptide: QWTCSGDEYTWHC[dN]YE
modifications: disulfide 4-13 (inferred); not fully specified (N-terminus); printed as QWTCSGDEYTWHCnYE
B14: Compound ID 967 (peptide)
peptide: {Gd^T″}-GK([Gly-Gd^T″])WHCTTYFPHHYCL[Dip]G
modifications: disulfide 5-14 (inferred); not fully specified

Bridge positions count the residues as written; N and C are the ends. Square brackets hold non-standard residues; d marks the D form. Primed or numbered codes have the meaning given here. Side chains are listed from the residue outwards. Ends that are not written are not given here. Phe(3,4-(OMe)2) = COc1ccc(C[C@H](N)C(=O)O)cc1OC; Phe(4-CN) = N#Cc1ccc(C[C@H](N)C(=O)O)cc1; Dip = N[C@H](C(=O)O)C(c1ccccc1)c1ccccc1; Gd^T″ = GdDTPA-thiourea

human collagen type I, acid soluble, extracted from placenta (Sigma C7774) (human), sequence (P02452 162-1218 limits assumed, chain 1 of 2): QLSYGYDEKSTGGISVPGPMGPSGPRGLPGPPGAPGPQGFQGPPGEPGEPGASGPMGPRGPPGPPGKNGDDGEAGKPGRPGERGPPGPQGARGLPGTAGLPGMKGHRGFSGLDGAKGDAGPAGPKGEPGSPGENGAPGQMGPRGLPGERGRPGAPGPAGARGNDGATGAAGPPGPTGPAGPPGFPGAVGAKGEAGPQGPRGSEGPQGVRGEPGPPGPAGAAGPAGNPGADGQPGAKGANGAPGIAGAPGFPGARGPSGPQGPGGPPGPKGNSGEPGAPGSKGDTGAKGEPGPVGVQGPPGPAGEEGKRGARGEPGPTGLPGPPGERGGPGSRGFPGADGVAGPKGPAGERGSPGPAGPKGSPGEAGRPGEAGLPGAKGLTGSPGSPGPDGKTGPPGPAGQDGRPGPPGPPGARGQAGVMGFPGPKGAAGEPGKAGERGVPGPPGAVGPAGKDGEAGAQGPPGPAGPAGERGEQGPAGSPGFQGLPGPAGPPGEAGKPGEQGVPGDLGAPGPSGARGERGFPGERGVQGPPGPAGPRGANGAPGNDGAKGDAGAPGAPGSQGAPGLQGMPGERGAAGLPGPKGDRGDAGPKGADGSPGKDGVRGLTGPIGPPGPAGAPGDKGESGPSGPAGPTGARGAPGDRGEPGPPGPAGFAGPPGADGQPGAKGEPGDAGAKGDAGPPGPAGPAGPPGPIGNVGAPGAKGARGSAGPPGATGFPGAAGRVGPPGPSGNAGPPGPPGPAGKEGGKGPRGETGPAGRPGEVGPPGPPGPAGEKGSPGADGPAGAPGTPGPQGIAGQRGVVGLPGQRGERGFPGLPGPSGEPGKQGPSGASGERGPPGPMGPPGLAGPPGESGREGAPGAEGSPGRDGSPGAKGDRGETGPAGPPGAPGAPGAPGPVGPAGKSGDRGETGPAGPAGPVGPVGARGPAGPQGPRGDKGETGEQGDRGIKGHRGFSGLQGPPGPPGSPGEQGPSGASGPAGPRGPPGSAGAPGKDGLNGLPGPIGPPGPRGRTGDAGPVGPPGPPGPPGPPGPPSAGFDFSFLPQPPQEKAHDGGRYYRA
human collagen type I, acid soluble, extracted from placenta (Sigma C7774) (human), sequence (P08123 80-1119 limits assumed, chain 2 of 2, further chain): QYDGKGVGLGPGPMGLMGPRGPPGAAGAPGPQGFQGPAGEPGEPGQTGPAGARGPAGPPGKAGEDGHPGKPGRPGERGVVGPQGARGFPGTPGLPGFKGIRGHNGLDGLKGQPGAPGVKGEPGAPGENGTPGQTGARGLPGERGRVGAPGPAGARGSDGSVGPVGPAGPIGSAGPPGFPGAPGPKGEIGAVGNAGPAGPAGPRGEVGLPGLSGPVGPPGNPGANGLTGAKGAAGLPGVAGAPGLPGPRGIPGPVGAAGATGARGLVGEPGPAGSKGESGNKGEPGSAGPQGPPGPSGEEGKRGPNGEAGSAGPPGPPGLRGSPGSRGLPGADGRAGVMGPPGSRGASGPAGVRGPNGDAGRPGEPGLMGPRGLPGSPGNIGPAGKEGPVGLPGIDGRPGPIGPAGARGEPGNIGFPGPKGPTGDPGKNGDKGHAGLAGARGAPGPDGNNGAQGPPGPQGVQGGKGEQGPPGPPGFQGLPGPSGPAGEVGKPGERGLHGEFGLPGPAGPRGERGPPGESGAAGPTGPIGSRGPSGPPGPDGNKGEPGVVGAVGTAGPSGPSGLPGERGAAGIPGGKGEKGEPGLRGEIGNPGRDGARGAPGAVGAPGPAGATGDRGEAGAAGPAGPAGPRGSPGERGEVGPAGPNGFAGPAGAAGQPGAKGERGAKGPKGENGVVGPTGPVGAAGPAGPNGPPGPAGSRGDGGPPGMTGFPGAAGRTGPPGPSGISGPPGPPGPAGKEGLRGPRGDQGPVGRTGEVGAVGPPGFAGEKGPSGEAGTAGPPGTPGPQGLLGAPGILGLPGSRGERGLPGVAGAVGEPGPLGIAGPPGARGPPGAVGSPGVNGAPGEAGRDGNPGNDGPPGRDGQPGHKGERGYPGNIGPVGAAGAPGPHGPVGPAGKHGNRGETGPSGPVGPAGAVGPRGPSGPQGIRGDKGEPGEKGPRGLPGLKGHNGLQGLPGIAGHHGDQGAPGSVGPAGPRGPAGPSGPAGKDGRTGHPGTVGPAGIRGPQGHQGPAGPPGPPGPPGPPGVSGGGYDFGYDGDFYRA

The first assay has as its target human collagen type I, acid soluble, extracted from placenta (Sigma C7774) (human) (UniProt P02452). The experiment in a line: dried collagen assay.
As to B1, the % bound worked out at 4%. In the case of B2, the % bound amounted to 8%. Still for that read-out and setting: the same measure for B3: 4%. For B4, the % bound came out at 4%.

In turn, B5 registered a % bound of 2%. Molecule B6 yielded a % bound of 2%.

Molecule B7 registered a % bound of 37%. In turn, B8 had a % bound of 2%. On the same count and under the same terms, then B9, with 2%; and B10, with 8%; and B11, with 3%. B12: the % bound was 5%.

B13 gave a % bound of 2%.

The next assay deals with rat collagen, acid soluble, type I, rat tail (Upstate 08-115) (rat) (UniProt P02454). The experiment in a line: dried collagen assay.
rat collagen, acid soluble, type I, rat tail (Upstate 08-115) (rat), sequence (P02454 152-1207, chain 1 of 2): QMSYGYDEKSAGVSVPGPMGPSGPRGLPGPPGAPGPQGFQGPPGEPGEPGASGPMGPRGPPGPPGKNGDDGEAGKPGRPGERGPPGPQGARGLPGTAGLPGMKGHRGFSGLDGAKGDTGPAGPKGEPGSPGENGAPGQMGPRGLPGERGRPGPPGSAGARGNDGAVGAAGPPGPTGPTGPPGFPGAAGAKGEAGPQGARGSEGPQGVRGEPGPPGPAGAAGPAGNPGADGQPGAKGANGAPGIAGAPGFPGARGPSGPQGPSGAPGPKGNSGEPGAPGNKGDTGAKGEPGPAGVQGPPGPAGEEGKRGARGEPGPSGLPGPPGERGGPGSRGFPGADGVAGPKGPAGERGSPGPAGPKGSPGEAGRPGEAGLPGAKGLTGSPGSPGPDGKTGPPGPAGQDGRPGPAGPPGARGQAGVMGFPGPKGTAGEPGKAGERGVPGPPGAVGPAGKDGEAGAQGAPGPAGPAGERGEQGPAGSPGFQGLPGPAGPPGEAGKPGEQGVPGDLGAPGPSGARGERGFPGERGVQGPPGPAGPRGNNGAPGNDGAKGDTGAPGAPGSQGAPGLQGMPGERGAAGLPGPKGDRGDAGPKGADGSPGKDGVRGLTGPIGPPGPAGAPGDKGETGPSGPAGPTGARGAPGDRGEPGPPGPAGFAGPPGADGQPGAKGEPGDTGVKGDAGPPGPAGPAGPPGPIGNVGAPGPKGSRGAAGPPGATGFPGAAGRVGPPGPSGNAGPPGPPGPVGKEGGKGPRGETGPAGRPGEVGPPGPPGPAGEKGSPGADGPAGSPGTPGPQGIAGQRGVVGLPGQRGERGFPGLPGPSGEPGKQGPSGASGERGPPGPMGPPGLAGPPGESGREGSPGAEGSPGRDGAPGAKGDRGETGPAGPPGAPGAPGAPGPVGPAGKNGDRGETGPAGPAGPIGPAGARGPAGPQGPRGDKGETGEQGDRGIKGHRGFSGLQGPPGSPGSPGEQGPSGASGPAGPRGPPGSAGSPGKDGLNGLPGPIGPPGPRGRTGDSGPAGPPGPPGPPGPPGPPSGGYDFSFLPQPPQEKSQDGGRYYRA
rat collagen, acid soluble, type I, rat tail (Upstate 08-115) (rat), sequence (P02466 86-1125, chain 2 of 2, further chain): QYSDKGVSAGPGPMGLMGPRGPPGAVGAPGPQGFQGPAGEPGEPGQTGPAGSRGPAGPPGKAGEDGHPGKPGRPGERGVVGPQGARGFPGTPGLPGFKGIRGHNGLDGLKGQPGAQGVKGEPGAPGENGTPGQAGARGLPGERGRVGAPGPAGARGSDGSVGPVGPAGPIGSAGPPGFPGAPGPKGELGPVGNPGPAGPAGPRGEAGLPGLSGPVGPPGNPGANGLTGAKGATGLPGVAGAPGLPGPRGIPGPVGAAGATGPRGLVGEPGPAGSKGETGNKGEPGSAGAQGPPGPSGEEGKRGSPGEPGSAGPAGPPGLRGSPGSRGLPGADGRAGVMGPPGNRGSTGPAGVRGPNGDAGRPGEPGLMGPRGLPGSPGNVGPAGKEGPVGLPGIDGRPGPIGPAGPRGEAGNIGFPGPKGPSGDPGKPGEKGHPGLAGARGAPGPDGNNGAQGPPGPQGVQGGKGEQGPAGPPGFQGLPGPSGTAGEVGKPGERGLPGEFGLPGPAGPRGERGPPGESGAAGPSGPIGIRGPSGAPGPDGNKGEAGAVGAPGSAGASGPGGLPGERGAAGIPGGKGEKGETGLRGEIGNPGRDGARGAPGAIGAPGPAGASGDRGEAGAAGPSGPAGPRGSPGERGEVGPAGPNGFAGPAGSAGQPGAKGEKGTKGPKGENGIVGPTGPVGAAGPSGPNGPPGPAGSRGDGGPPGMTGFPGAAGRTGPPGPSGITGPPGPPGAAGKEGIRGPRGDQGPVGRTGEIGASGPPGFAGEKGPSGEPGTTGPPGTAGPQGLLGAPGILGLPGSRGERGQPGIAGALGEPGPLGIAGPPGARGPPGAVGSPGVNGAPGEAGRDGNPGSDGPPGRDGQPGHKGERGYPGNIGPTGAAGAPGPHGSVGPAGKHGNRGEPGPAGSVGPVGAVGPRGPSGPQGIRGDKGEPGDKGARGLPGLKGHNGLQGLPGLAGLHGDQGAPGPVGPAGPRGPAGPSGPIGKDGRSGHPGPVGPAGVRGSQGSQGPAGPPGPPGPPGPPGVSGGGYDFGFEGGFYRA
B1 displayed a % bound of 5%.

B2 gave a % bound of 2%. Consider B3, for which the % bound was 2%. B4 displayed a % bound of 7%. Regarding B5, the % bound is 4%. For B6, the % bound is 2%. For the molecule B14, the % bound was 4%. The molecule B7 returned a % bound of 53%. For B8, the % bound came to 3%. In turn, B9 gave a % bound of 2%. On the same count and under the same terms, then B10, with 9%; and B11, with 2%.

On to B12, for which the % bound was found to be 4%. Consider B13, for which the % bound worked out at 2%.
